Test results reported in paper PMC4110032, “Crystal Structure of the Stress-Inducible Human Heat Shock Protein 70 Substrate-Binding Domain in Complex with Peptide Substrate” (PLoS ONE, 2014).

Molecular target: T1, human HSP70 substrate-binding domain (residues 386–616) (human, UniProt P0DMV8 386-616)
T1 construct: Cloned into pET25 between NdeI and XhoI; The His6 tag was retained for crystallisation; A selenomethionine-derivatised form was used for phasing; also called HSP70-SBD; HSP70 SBD; source: E. coli BL21 Star (DE3), purified (Ni-NTA; size-exclusion chromatography when necessary); not shown: His6, N-terminal, kept
Assay: crystal structure; co-crystallised by hanging drop vapour diffusion; 5 mM NRLLLTG mixed with 400 µM HSP70 (386–616), preheated to 42°C for 15 min and cooled to room temperature; 0.1 M Bis-Tris pH 5.5, 0.2 M Li2SO4, PEG3350; 2 Å, space group C2, two complexes per asymmetric unit
Settings: both partners purified

T1 sequence (P0DMV8 386-616): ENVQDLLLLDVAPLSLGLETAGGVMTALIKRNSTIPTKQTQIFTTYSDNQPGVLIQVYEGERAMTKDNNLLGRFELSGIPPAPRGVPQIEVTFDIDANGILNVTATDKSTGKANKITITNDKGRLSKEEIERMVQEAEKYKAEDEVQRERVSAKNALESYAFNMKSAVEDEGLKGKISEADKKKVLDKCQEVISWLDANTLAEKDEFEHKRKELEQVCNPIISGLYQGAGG

B1: NRLLLTG peptide (peptide)
peptide: NRLLLTG
notes: hepta-peptide model substrate used in earlier DnaK structural analyses; Residues of the peptide are numbered 1-7 with the suffix p (Leu5p); also called hepta-peptide model substrate; NRLLLTG substrate peptide; source: bought: Biomatik
  binding result: binds
